The target in assay [1] is T1, soluble His-tagged hepsin comprising the entire extracellular domain of human hepsin (Arg45-Leu417) (human, UniProt P05981 45-417).
T1 construct: range 45-417; also called soluble hepsin; recombinant soluble hepsin; not shown: His tag
In words: enzyme inhibition, 0.5 nM hepsin, chromogenic substrate S2366; apparent Ki (Ki*) from tight-binding fit. The procedure: (§1) After substrate addition, the linear rates of the increase in absorbance at 405 nm was measured on a kinetic microplate reader (Molecular Devices, Sunnyvale, Calif.).

The target in assay [2] is T2, matriptase protease domain (UniProt Q9Y5Y6 615-855, limits assumed).
T2 construct: domain: protease domain
T2 sequence (looked up): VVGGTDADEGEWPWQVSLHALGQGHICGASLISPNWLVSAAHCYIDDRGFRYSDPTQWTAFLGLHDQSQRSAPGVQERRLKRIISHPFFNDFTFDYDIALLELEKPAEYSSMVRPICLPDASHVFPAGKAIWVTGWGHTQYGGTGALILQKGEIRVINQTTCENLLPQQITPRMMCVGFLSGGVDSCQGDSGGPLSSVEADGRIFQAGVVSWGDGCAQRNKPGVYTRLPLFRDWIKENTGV
Nature of the assay: enzyme inhibition, 0.5 nM matriptase, chromogenic substrate S2765; apparent Ki (Ki*) from tight-binding fit. The procedure: as §1

T1 sequence (P05981 45-417 limits assumed): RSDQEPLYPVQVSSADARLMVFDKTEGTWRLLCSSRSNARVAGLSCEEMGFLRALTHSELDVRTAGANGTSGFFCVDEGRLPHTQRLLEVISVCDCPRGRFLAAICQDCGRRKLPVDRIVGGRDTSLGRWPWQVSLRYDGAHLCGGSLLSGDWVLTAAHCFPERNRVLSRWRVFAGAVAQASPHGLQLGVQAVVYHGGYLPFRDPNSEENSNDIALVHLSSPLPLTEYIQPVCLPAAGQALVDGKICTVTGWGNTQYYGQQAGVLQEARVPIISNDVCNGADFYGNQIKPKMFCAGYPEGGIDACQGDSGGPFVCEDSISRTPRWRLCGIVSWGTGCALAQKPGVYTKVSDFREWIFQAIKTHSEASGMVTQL

B1: soluble HAI-2 (hepatocyte growth factor activator inhibitor-2) (other, UniProt O43291 28-197, looked up)
chain: ADRERSIHDFCLVSKVVGRCRASMPRWWYNVTDGSCQLFVYGGCDGNSNNYLTKEECLKKCATVTENATGDLATSRNAADSSVPSAPRRQDSEDHSSDMFNYEEYCTANAVTGPCRASFPRWYFDVERNSCNNFIYGGCRGNKNSYRSEEACMLRCFRQQENPPLPLGSK
B1: the Ki in assay [1] amounted to 0.26 nM; in assay [2] it was 0.85 nM.

The values above are taken from patent US20100061996A1 (Genentech, published 2010).
